Here are results for one compound from patent publication US5434135A, “Growth factor compositions, preparation and use” (Parikh; Indu, priority 1993, dated 1995).

For series [1] the following is noted: at one hour. The protocol: At the indicated times aliquots were withdrawn and the amount of intact parent peptide was determined as the area under the curve (AUC) of the A214 (absorbance at 214 nanometers) chromatogram;
The test system of series [2] is trypsin. To be noted: 3% trypsin, after one hour.
Series [3] concerns trypsin. Put plainly: in vitro. To be noted: 1% trypsin.

With `CC[C@H](C)[C@@H]1NC(=O)[C@H](Cc2ccc(O)cc2)NC(=O)CNC(=O)[C@H](C(C)C)NC(=O)[C@H](C(C)C)NC(=O)[C@@H](NC(=O)[C@H](CC(N)=O)NC(=O)[C@@H]2CSSC[C@@H]3NC(=O)[C@H](Cc4ccc(O)cc4)NC(=O)CNC(=O)[C@H](CC(=O)O)NC(=O)[C@H](Cc4c[nH]cn4)NC(=O)[C@H](CO)NC(=O)[C@H](CC(C)C)NC(=O)[C@@H]4CCCN4C(=O)[C@@H](NC(=O)[C@H](CCC(=O)O)NC(=O)[C@H](CO)NC(=O)[C@H](CC(=O)O)NC(=O)[C@H](CO)NC(=O)[C@@H](N)CC(N)=O)CSSC[C@H](NC(=O)[C@H](C(C)C)NC(=O)CNC(=O)[C@H](CC(=O)O)NC(=O)[C@H](Cc4c[nH]cn4)NC(=O)[C@H](CC(C)C)NC3=O)C(=O)N[C@@H](CCSC)C(=O)N[C@@H](Cc3ccc(O)cc3)C(=O)N[C@@H]([C@@H](C)CC)C(=O)N[C@@H](CCC(=O)O)C(=O)N[C@@H](C)C(=O)N[C@@H](CC(C)C)C(=O)N[C@@H](CC(=O)O)C(=O)N[C@@H](CCCCN)C(=O)N[C@@H](Cc3ccc(O)cc3)C(=O)N[C@@H](C)C(=O)N2)CSSC[C@@H](C(=O)N[C@@H](CCC(N)=O)C(=O)N[C@@H](Cc2ccc(O)cc2)C(=O)N[C@@H](CCCNC(=N)N)C(=O)N[C@@H](CC(=O)O)C(=O)N[C@@H](CC(C)C)C(=O)N[C@@H](CCCCN)C(=O)N[C@@H](Cc2c[nH]c3ccccc23)C(=O)N[C@@H](Cc2c[nH]c3ccccc23)C(=O)N[C@@H](CCC(=O)O)C(=O)N[C@@H](CC(C)C)C(=O)N[C@@H](CCCNC(=N)N)C(=O)O)NC(=O)[C@H](CCCNC(=N)N)NC(=O)[C@H](CCC(=O)O)NC(=O)CNC1=O` [hEGF1-53], the “degradation in gastric fluid” value in series [1] is on record as “approaching almost complete degradation”. The degradation in trypsin in the series with trypsin [2] is given as 90-100%. The same compound displayed a metabolised at 1 h in the series with trypsin [3] of about 50%.
